Test results from patent US20170174750A1.

Legend:
[1] = molecular target: p210 BCR-ABL1 T315I kinase domain mutant stably expressed in Ba/F3 cells (Homo sapiens (Human)) (UniProt P11274)
[2] = molecular target: endogenous Bcr-Abl of K562 cells (human leukemia Bcr-Abl+ cells; wild-type, unmutated) (human) (UniProt P11274)
[3] = molecular target: p210 BCR-ABL1 E255V/T315I compound mutant stably expressed in Ba/F3 cells (Homo sapiens (Human)) (UniProt P11274)
[4] = molecular target: p210 BCR-ABL1 T315I kinase domain mutant stably expressed in Ba/F3 cells (Homo sapiens (Human)) (UniProt P11274); remark: listed apart in the source
[5] = molecular target: p210 BCR-ABL1 E255V kinase domain mutant stably expressed in Ba/F3 cells (Homo sapiens (Human)) (UniProt P11274)
[6] = molecular target: p210 Bcr-Abl (native, non-mutated) stably expressed in Ba/F3 cells (Homo sapiens (Human)) (UniProt P11274)

colony forming assay (transformative ability) of Ba/F3-p210-T315I cells [1] [%] | colony forming assay (transformative ability) of K562 cells (fold decrease) [2] | colony formation assay of Ba/F3 cells expressing BCR-ABL1 E255V/T315I [3] [%] | cell proliferation (MTS assay) of Ba/F3 cells expressing BCR-ABL1 T315I (fold reduction) [4] | colony formation assay of Ba/F3 cells expressing BCR-ABL1 T315I (fold reduction) [4] | cell proliferation (MTS assay) of Ba/F3 cells expressing BCR-ABL1 E255V (fold reduction) [5] | colony formation assay of Ba/F3 cells expressing BCR-ABL1 E255V (fold reduction) [5] | apoptosis (Annexin V / 7-AAD, 72 h) of Ba/F3 cells expressing native BCR-ABL1 (fold increase) [6] | cell proliferation (MTS assay) of Ba/F3 cells expressing native BCR-ABL1 (fold reduction) [6] | Binder
40 | 3 | – | – | – | – | – | – | – | EGFP-CC^mut3 (expressed from pEGFP-CC^mut3) (designed binder) MVDPVGFAEAWKAQFPDSEPPRMELRSVGDIEQELERAEARIRRDEQRVNQERFRMIYLETLLAKEKKSYDR
– | – | 50 | 3 | > 10 | 3 | > 10 | 3 | > 2 | mCherry-CC^mut3 fusion (expressed from pmCherry-CC^mut3) (designed binder) MVDPVGFAEAWKAQFPDSEPPRMELRSVGDIEQELERAEARIRRDEQRVNQERFRMIYLETLLAKEKKSYDR
